Measurements reported in patent publication US20120316071A1 (published 2012).

What was measured:
[1] = biological target: T1, Recombinant Human DLL4 (delta-like protein 4) (human, UniProt Q9NR61 27-524); experiment: ELISA, DLL4 coated on plate, Fab at 5 nM, absorbance at 450 nm
T1 construct: Bought recombinant protein (R&D Systems Cat#1506-D4/CF) coated on the ELISA plate; also called rHuman DLL4; Delta-like 4

[2] = biological target: T1, Recombinant Human DLL4 (delta-like …); experiment: ELISA, DLL4 coated on plate, Fab at 10 nM, absorbance at 450 nm
[3] = biological target: T1, Recombinant Human DLL4 (delta-like …); experiment: ELISA, DLL4 coated on plate, Fab at 20 nM, absorbance at 450 nm
[4] = biological target: T1, Recombinant Human DLL4 (delta-like …); experiment: ELISA, DLL4 coated on plate, Fab at 1.3 nM, absorbance at 450 nm
[5] = biological target: T1, Recombinant Human DLL4 (delta-like …); experiment: ELISA, DLL4 coated on plate, Fab at 2.5 nM, absorbance at 450 nm
[6] = biological target: T1, Recombinant Human DLL4 (delta-like …); experiment: ELISA, DLL4 coated on plate, Fab at 0.16 nM, absorbance at 450 nm
[7] = biological target: T1, Recombinant Human DLL4 (delta-like …); experiment: ELISA, DLL4 coated on plate, Fab at 0.31 nM, absorbance at 450 nm
[8] = biological target: T1, Recombinant Human DLL4 (delta-like …); experiment: ELISA, DLL4 coated on plate, Fab at 0.63 nM, absorbance at 450 nm
[9] = biological target: T2, Recombinant Human DLL4 (human, UniProt Q9NR61 27-524); experiment: ECL (MSD) multispot binding assay, DLL4 spotted on plate, Fab in solution
T2 construct: also called delta-like protein 4; rHuman DLL4

Binder | ELISA signal [1] | ELISA signal [2] | ELISA signal [3] | ELISA signal [4] | ELISA signal [5] | ELISA signal [6] | ELISA signal [7] | ELISA signal [8] | ECL signal [9]
Fab VH1-46_IGHD6-6*01_IGHJ1*01 S102A/S103P/S104F/H111F/N52L/S54T/G56H (APFF LTH) & L6_IGKJ1*01 (Fab, V domains shown, Tested as a Fab made in E. coli: VH cloned into Plasmid A (CH1, His6 and Flag tags), kappa VL into Plasmid C (kappa CL); also called H:APFF LTH & L:wt) VH: QVQLVQSGAEVKKPGASVKVSCKASGYTFTSYYMHWVRQAPGQGLEWMGIILPTGHSTSYAQKFQGRVTMTRDTSTSTVYMELSSLRSEDTAVYYCAREEYAPFSAEYFQFWGQGTLVTVSS VL: not shown | 2.48 | 2.35 | 2.4 | 0.653 | 2.15 | 2.35 | 2.4 | 1.37 | –
Fab VH1-46_IGHD6-6*01_IGHJ1*01 S102A/S103P/S104F/H111F I51T/N52V (APFF I51T/N52V) & L6_IGKJ1*01 (Fab, V domains shown, Tested as a Fab made in E. coli: VH in Plasmid A (CH1, His6 and Flag tags), kappa VL in Plasmid C (kappa CL)) VH: QVQLVQSGAEVKKPGASVKVSCKASGYTFTSYYMHWVRQAPGQGLEWMGITVPSGGSTSYAQKFQGRVTMTRDTSTSTVYMELSSLRSEDTAVYYCAREEYAPFSAEYFQFWGQGTLVTVSS VL: not shown | 0.724 | 0.506 | 0.648 | 0.055 | 0.358 | 0.506 | 0.648 | 0.115 | –
Fab VH1-46_IGHD6-6*01_IGHJ1*01 S102A/S103P/S104F/H111F/I51E/N52L/S54T/G56H (APFF ELTH) & L6_IGKJ1*01 (Fab, V domains shown, Tested as a Fab made in E. coli: VH in Plasmid A (CH1, His6 and Flag tags), kappa VL in Plasmid C (kappa CL)) VH: QVQLVQSGAEVKKPGASVKVSCKASGYTFTSYYMHWVRQAPGQGLEWMGIELPTGHSTSYAQKFQGRVTMTRDTSTSTVYMELSSLRSEDTAVYYCAREEYAPFSAEYFQFWGQGTLVTVSS VL: not shown | 2.33 | 2.17 | 2.29 | 0.402 | 1.98 | 2.17 | 2.29 | 1.01 | –
Fab VH1-46_IGHD6-6*01_IGHJ1*01 S102A/S103P/S104F/H111F/I51N/N52L/S54T/G56H (APFF NLTH) & L6_IGKJ1*01 (Fab, V domains shown, Tested as a Fab made in E. coli: VH in Plasmid A (CH1, His6 and Flag tags), kappa VL in Plasmid C (kappa CL)) VH: QVQLVQSGAEVKKPGASVKVSCKASGYTFTSYYMHWVRQAPGQGLEWMGINLPTGHSTSYAQKFQGRVTMTRDTSTSTVYMELSSLRSEDTAVYYCAREEYAPFSAEYFQFWGQGTLVTVSS VL: not shown | 1.75 | 1.36 | 1.63 | 0.143 | 1.17 | 1.36 | 1.63 | 0.419 | –
Fab VH1-46_IGHD6-6*01_IGHJ1*01 S102A/S103P/S104F/H111F/I51T/N52L/P53A/S54T/G56H (APFF TLATH) & L6_IGKJ1*01 (Fab, V domains shown, Tested as a Fab made in E. coli: VH in Plasmid A (CH1, His6 and Flag tags), kappa VL in Plasmid C (kappa CL)) VH: QVQLVQSGAEVKKPGASVKVSCKASGYTFTSYYMHWVRQAPGQGLEWMGITLATGHSTSYAQKFQGRVTMTRDTSTSTVYMELSSLRSEDTAVYYCAREEYAPFSAEYFQFWGQGTLVTVSS VL: not shown | 1.27 | 0.875 | 1.11 | 0.078 | 0.592 | 0.875 | 1.11 | 0.227 | –
Fab VH1-46_IGHD6-6*01_IGHJ1*01 S102A/S103P/S104F/H111F/I51V/N52L/S54T/G56H (APFF VLTH) & L6_IGKJ1*01 (Fab, V domains shown, Tested as a Fab made in E. coli: VH in Plasmid A (CH1, His6 and Flag tags), kappa VL in Plasmid C (kappa CL); also called APPF VLTH) VH: QVQLVQSGAEVKKPGASVKVSCKASGYTFTSYYMHWVRQAPGQGLEWMGIVLPTGHSTSYAQKFQGRVTMTRDTSTSTVYMELSSLRSEDTAVYYCAREEYAPFSAEYFQFWGQGTLVTVSS VL: not shown | 2.2 | 1.85 | 2.05 | 0.252 | 1.66 | 1.85 | 2.05 | 0.785 | –
Fab VH1-46_IGHD6-6*01_IGHJ1*01 S102A/S103P/S104F/H111F (APFF) & L6_IGKJ1*01 W94L (Fab, V domains shown, Fab from E. coli; VH in Plasmid A (CH1, His6 and Flag tags), VL in Plasmid C (kappa CL); also called APFF & W94L) VH: QVQLVQSGAEVKKPGASVKVSCKASGYTFTSYYMHWVRQAPGQGLEWMGIINPSGGSTSYAQKFQGRVTMTRDTSTSTVYMELSSLRSEDTAVYYCAREEYAPFSAEYFQFWGQGTLVTVSS VL: EIVLTQSPATLSLSPGERATLSCRASQSVSSYLAWYQQKPGQAPRLLIYDASNRATGIPARFSGSGSGTDFTLTISSLEPEDFAVYYCQQRSNLPPWTFGQGTKVEIKR | – | – | – | – | – | – | – | – | 11600
Fab VH1-46_IGHD6-6*01_IGHJ1*01 S102A/S103P/S104F/H111F (APFF) & L6_IGKJ1*01 W94M (Fab, V domains shown, Fab from E. coli; VH in Plasmid A (CH1, His6 and Flag tags), VL in Plasmid C (kappa CL); also called APFF & W94M) VH: QVQLVQSGAEVKKPGASVKVSCKASGYTFTSYYMHWVRQAPGQGLEWMGIINPSGGSTSYAQKFQGRVTMTRDTSTSTVYMELSSLRSEDTAVYYCAREEYAPFSAEYFQFWGQGTLVTVSS VL: EIVLTQSPATLSLSPGERATLSCRASQSVSSYLAWYQQKPGQAPRLLIYDASNRATGIPARFSGSGSGTDFTLTISSLEPEDFAVYYCQQRSNMPPWTFGQGTKVEIKR | – | – | – | – | – | – | – | – | 33800
